Measured values from patent US20160264649A1.

Legend:
Experiment in all cases: cell-based or functional assay
[1] = target: HIV-1 MGRM-G-025 Env (HIV-1)
[2] = target: HIV-1 92UG046 Env (HIV-1)
[3] = target: HIV-1 92UG024 Env (HIV-1)
[4] = target: HIV-1 MGRM-AE-004 Env (HIV-1)
[5] = target: HIV-1 MGRM-G-019 Env (HIV-1)
[6] = target: HIV-1 MGRM-D-014 Env (HIV-1)
[7] = target: HIV-1 94UG114 Env (HIV-1)
[8] = target: HIV-1 MGRM-C-009 Env on pseudovirus (HIV-1)
[9] = target: HIV-1 97ZA012 Env on pseudovirus (HIV-1)
[10] = target: HIV-1 IAVI-C22 Env (HIV-1)
[11] = target: HIV-1 MGRM-C-007 Env on pseudovirus (HIV-1)
[12] = target: HIV-1 LAVI_C3 Env on pseudovirus (HIV-1)
HIV-1 APV-17 Env (HIV-1) = target: HIV-1 APV-17 Env (HIV-1)
[13] = target: HIV-1 MGRM-F1-021 Env (HIV-1)
[14] = target: HIV-1 MGRM-AG-013 Env (HIV-1)
[15] = target: HIV-1 CAAN.A2 (Acute) Env on pseudovirus (HIV-1)
[16] = target: HIV-1 MGRM-D-018 Env (HIV-1)
[17] = target: HIV-1 92BR020 Env on pseudovirus (HIV-1)
[18] = target: HIV-1 MGRM-G-013 Env (HIV-1)
HIV-1 APV-6 Env (HIV-1) = target: HIV-1 APV-6 Env (HIV-1)
[19] = target: HIV-1 MGRM-C-010 Env on pseudovirus (HIV-1)
[20] = target: HIV-1 MGRM-C-025 Env on pseudovirus (HIV-1)
[21] = target: HIV-1 IAVI-C18 Env (HIV-1)
[22] = target: HIV-1 MGRM-F1-017 Env (HIV-1)
[23] = target: HIV-1 VLGCB3 Env on pseudovirus (HIV-1)
[24] = target: HIV-1 92TH021 Env (HIV-1)
[25] = target: HIV-1 93MW959 Env on pseudovirus (HIV-1)
[26] = target: HIV-1 94UG103 Env (HIV-1)
[27] = target: HIV-1 MGRM-C-017 Env on pseudovirus (HIV-1)
HIV-1 NL43 Env (HIV-1) = target: HIV-1 NL43 Env (HIV-1)
[28] = target: HIV-1 MGRM-C-013 Env on pseudovirus (HIV-1)
[29] = target: HIV-1 TRJ0.58 (Acute) Env on pseudovirus (HIV-1)
[30] = target: HIV-1 MGRM-C-004 Env on pseudovirus (HIV-1)
[31] = target: HIV-1 APV_6 Env on pseudovirus (HIV-1)
[32] = target: HIV-1 MGRM-C-006 Env on pseudovirus (HIV-1)
[33] = target: HIV-1 SC422661.8 (Acute) Env on pseudovirus (HIV-1)
[34] = target: HIV-1 MGRM-F1-014 Env (HIV-1)
[35] = target: HIV-1 MGRM-AG-012 Env (HIV-1)
[36] = target: HIV-1 MGRM-F1-006 Env (HIV-1)
[37] = target: HIV-1 MGRM-AG-003 Env (HIV-1)
[38] = target: HIV-1 MGRM-AG-001 Env (HIV-1)
[39] = target: HIV-1 MGRM-D-029 Env (HIV-1)
[40] = target: HIV-1 MGRM-C-015 Env on pseudovirus (HIV-1)
[41] = target: HIV-1 JRFL Env on pseudovirus (HIV-1)
[42] = target: HIV-1 MGRM-D-008 Env (HIV-1)
[43] = target: HIV-1 MGRM-D-002 Env (HIV-1)
[44] = target: HIV-1 MGRM-AG-011 Env (HIV-1)
[45] = target: HIV-1 MGRM-D-022 Env (HIV-1)
[46] = target: HIV-1 MGRM-F1-023 Env (HIV-1)
[47] = target: HIV-1 MGRM-D-020 Env (HIV-1)
[48] = target: HIV-1 MGRM-F1-012 Env (HIV-1)
[49] = target: HIV-1 MGRM-F1-010 Env (HIV-1)

In the case of 4E10 (antibody), the IC50 (µg/ml), pseudovirus neutralization [1] is reported as 1.7 µg/mL, the IC50 (µg/ml), pseudovirus neutralization [2] is reported as 12.2 µg/mL and the IC50 (µg/ml), pseudovirus neutralization [3] is reported as 2.17 µg/mL. It also gave a neutralization IC50 [3] of 1.32 µg/mL, a neutralization IC90 [3] of 23.7 µg/mL and an IC50 (µg/ml), pseudovirus neutralization [4] of 1.27 µg/mL. The IC50 (µg/ml), pseudovirus neutralization [5] was 6.53 µg/mL, the IC50 (µg/ml), pseudovirus neutralization [6] was 3.24 µg/mL and the IC50 (µg/ml), pseudovirus neutralization [7] was 9.72 µg/mL. It also gave an IC50 [8] of 0.56 µg/mL, an IC50 [9] of 4.7 µg/mL and a neutralization IC50 [10] of 1.02 µg/mL. The neutralization IC90 [10] was 16.4 µg/mL, the IC50 [11] was 5.84 µg/mL and the IC50 [12] was 2.85 µg/mL. It also gave a neutralization IC50 (HIV-1 APV-17 Env (HIV-1)) of 5.1 µg/mL, an IC50 (pseudovirus neutralization) [13] of 1.87 µg/mL and an IC50 (µg/ml), pseudovirus neutralization [14] of 2.61 µg/mL. For the same substance, the IC50 [15] was 17.9 µg/mL, the IC50 (µg/ml), pseudovirus neutralization [16] was 3.9 µg/mL and the IC50 [17] was > 50 µg/mL. The IC50 (µg/ml), pseudovirus neutralization [18] was 1.15 µg/mL, the neutralization IC50 (HIV-1 APV-6 Env (HIV-1)) was 0.4 µg/mL and the IC50 [19] was 11 µg/mL. The IC50 [20] was 5.58 µg/mL, the neutralization IC50 [21] was > 50 µg/mL and the neutralization IC90 [21] was > 50 µg/mL. For the same substance, the IC50 (pseudovirus neutralization) [22] was 4.92 µg/mL, the IC50 [23] was 5.76 µg/mL and the IC50 (µg/ml), pseudovirus neutralization [24] was 1.17 µg/mL. For the same substance, the neutralization IC50 [24] was 1.9 µg/mL, the neutralization IC90 [24] was 23.5 µg/mL and the IC50 [25] was 4.55 µg/mL. The neutralization IC50 [26] was 9.7 µg/mL, the neutralization IC90 [26] was > 50 µg/mL and the IC50 [27] was 1.47 µg/mL. The neutralization IC50 (HIV-1 NL43 Env (HIV-1)) was 4.95 µg/mL, the neutralization IC90 (HIV-1 NL43 Env (HIV-1)) was 29.6 µg/mL and the IC50 [28] was 2.1 µg/mL. For the same substance, the IC50 [29] was 11.9 µg/mL, the IC50 [30] was 24.2 µg/mL and the IC50 [31] was 1.1 µg/mL. It also gave an IC50 [32] of 4.94 µg/mL, an IC50 [33] of 6.35 µg/mL and an IC50 (pseudovirus neutralization) [34] of 7.36 µg/mL. For the same substance, the IC50 (µg/ml), pseudovirus neutralization [35] was 0.86 µg/mL, the IC50 (pseudovirus neutralization) [36] was 1.01 µg/mL and the IC50 (µg/ml), pseudovirus neutralization [37] was 0.64 µg/mL. For the same substance, the IC50 (µg/ml), pseudovirus neutralization [38] was 1.12 µg/mL, the IC50 (µg/ml), pseudovirus neutralization [39] was 5.3 µg/mL and the IC50 [40] was 2.52 µg/mL. It also gave an IC50 [41] of 18.9 µg/mL, an IC50 (µg/ml), pseudovirus neutralization [42] of 42.9 µg/mL and an IC50 (µg/ml), pseudovirus neutralization [43] of 9.44 µg/mL. It also gave an IC50 (µg/ml), pseudovirus neutralization [44] of 1.36 µg/mL, an IC50 (µg/ml), pseudovirus neutralization [45] of 16.9 µg/mL and an IC50 (pseudovirus neutralization) [46] of 0.44 µg/mL. For the same substance, the IC50 (µg/ml), pseudovirus neutralization [47] was > 50 µg/mL, the IC50 (pseudovirus neutralization) [48] was 0.37 µg/mL and the IC50 (pseudovirus neutralization) [49] was 3.69 µg/mL.
